Experimental data as given in article PMC2109139.

Molecular target: subunit of the Mo-Fe protein from Azotobacter vinelandii nitrogenase (Azotobacter vinelandii (strain OP)) (UniProt P07328)
Experiment: electron microscopy

stoichiometry N: 4
Substance: subunit of the Mo-Fe protein from Azotobacter vinelandii nitrogenase (from UniProt P07328 1-492) (natural protein)
